Test results from patent US9096835B2, “DNA polymerase” (Medical Research Council, priority 2003, dated 2015).
Entries after “also recorded” stand apart in the source; their conditions may differ.

What was measured:
Assay type in all cases: biochemical
[1] = system: primer-template duplex with matched or mismatched 3′ terminus; experiment: Steady-state extension kinetics, gel-based assay; conditions: incorporated base is dCTP
Protocol: Kinetic parameters were determined using a gel-based assay essentially as described (16). Primers 15, 16, 17 (3′ base=G, C, A respectively) were ^32P-labeled and annealed to one of template strands 18, 19, 20 (template base=C, G, A respectively) or 21 (template base C different context). Duplex substrates were used at 50 nM final concentration in 1× Taq buffer with various concentrations of enzyme and dNTP. Reactions were carried out at 60° C. for times whereby <20% of primer-template was utilized at the highest concentration of dNTP.
Extension and incorporation kinetics of M1 and M4 for a selection of mismatches were measured using a gel-based steady-state kinetic assay (Goodman) (Tables 1 & 2). M1 and M4 respectively extend a C•C mispair 390 and 75-fold more efficiently than wtTaq. […] The gain in extension efficiency derives predominantly from increased relative Vmax values for the mutant polymerases, while Km for nucleotide substrates remains largely unchanged. For most DNA polymerases the relative efficiency of extending a given mispair (f0ext) is similar to the relative efficiency of forming it (finc) (Goodman 1993, Goodman 1990, Washington 2001). Indeed, M1 and M4 respectively incorporate dCTP opposite template base C 206- and 29-fold more efficiently than wtTaq (Table 2).

[2] = system: primers with 3′ transversion mismatches; experiment: Mismatch extension PCR assay; conditions: G•A, C•C, G•G mismatched primers
Protocol: A PCR assay was used to screen and rank clones. Briefly, clones were normalized for activity in PCR with matched primers 3, 4 and activity with mismatched primers 1 and 2 (1 μM each) determined at minimal cycle number (15-25 cycles). Extension capability for different mismatches was determined by the same assay using mismatch primers 2 (C•C mismatch), 5 (A•A mismatch), 6 (G•G mismatch), 7 (G•A mismatch) with matched primer 3 or primer 1 (A•G mismatch) with matched primer 4. Incorporation of unnatural substrates in 50 cycle PCR was carried out using standard conditions and 50 μM […] dNTPs (Promega) or 50 μM FITC-12-dATP (Perkin-Elmer), Rhodamine-5-dUTP (Perkin-Elmer) or Biotin-16-dUTP (Roche) with equivalent amounts of the other 3 dNTPs (all 50 μM). Long PCR was carried out using a two-step cycling protocol as described (22) 94° C. for 2 minutes, followed by 20 cycles of (94° C. 15 sec, 68° C. 30 min) using 5 ng of phage λ DNA (New England Biolabs) template and either primers 9, 10, 11 with primer 12 or primer 13 with primers 10, 14.

[3] = system: template containing an abasic site; experiment: Translesion replication assay (primer extension), abasic site; conditions: gel-extension assay, 60° C.
Protocol: Template primers 22 (undamaged) or 23 (containing a synthetic abasic site) were synthesized by Lofstrand Laboratories (Gaithersburg, Md.). Template primer 24 (containing a single cis-syn thymine dimer), was synthesized as described (34). Primer 25 was ^32P-labeled and annealed to one of the three templates 22, 23, 24 (at a primer template ratio of molar 1:1.5) and extended in 40 mM Tris.HCl at pH 8.0, 5 mM MgCl2, 100 μM of each dNTP, 10 mM DTT, 250 μg/ml BSA, 2.5% glycerol, 10 nM primer-template DNA and 0.1 Unit of polymerase at 60° C. for various times.
Primer extension assays were essentially as described in (Ghadessy et al., 2004). Briefly, undamaged oligonucleotides and a 51mer containing a synthetic abasic site were synthesized by Lofstrand Laboratories (Gaithersburg, Md.) using standard techniques and were gel purified prior to use. A 20mer primer (LES—20 P) with the sequence 5′-[…]-3′ (SEQ ID NO: 99) was 5′-labeled with [^32P]ATP (5000 Ci/mmole; 1 Ci=37 GBq) (Pharmacia) using T4 polynucleotide kinase (Invitrogen, Carlsbad Calif.). Radiolabeled primer-template DNAs were prepared by annealing the 5′[^32P] labeled 20mer primer to one of the two following 51mer templates (at a primer template ratio of molar 1:1.5). 1) undamaged DNA (UNDT51T); 5′-AGCTACCATGCCTGCACGAATTCGGCATCCGTCGCGACCACGGTCGCAGCG-3′ (SEQ ID NO: 100); 2) an oligo (LABA51T) containing a synthetic abasic site (indicated as an X in bold font); 5′-AGCTACCATGCCTGCACGACA XCG GCATCCGTCGCGACCACGGTCGCAGCG-3′ (SEQ ID NO: 101). Standard replication reactions of 10 contained 40 mM Tris.HCl at pH 8.0, 5 mM MgCl2, 100 μM of each ultrapure dNTP (Amersham Pharmacia Biotech, NJ), 10 mM DTT, 250 μg/ml BSA, 2.5% glycerol, 10 nM 5′[32P] primer-template DNA and 0.1 Unit of polymerase. After incubation at 60° C. for various times reactions were terminated by the addition of 10 μl of 95% formamide/10 mM EDTA and the samples heated to 100° C. for 5 min. Reaction mixtures (5 μl) were subjected to 20% polyacrylamide/7 M Urea gel electrophoresis and replication products visualized by PhosphorImager analysis.

[4] = 3′-terminal base pair C · G (template base: 3′ primer base), matched

Molecule: wtTaq: Thermus aquaticus (Taq) wild type DNA polymerase [reference compound]
- Vmax ([1]; 3′-terminal base pair A · A (template base: 3′ primer base)): 1.7 % Min^−1
- Km ([1]; 3′-terminal base pair A · A): 27.3 µM
- Ratio of fext, fext (mutant polymerase)/fext (wtTaq) ([1]; 3′-terminal base pair A · A): 1.0
- fext, f (mismatched 3′terminus)/f (matched terminus) ([1]; 3′-terminal base pair A · A): 6.7 × 10^−7
- Vmax ([1]; 3′-terminal base pair A · G (template base: 3′ primer base)): 28.0 % Min^−1
- Km ([1]; 3′-terminal base pair A · G): 45.2 µM
- Ratio of fext, fext (mutant polymerase)/fext (wtTaq) ([1]; 3′-terminal base pair A · G): 1.0
- fext, f (mismatched 3′terminus)/f (matched terminus) ([1]; 3′-terminal base pair A · G): 2.1 × 10^−7
- Vmax ([1]; 3′-terminal base pair C · C (template base: 3′ primer base)): 0.2 % Min^−1
- Km ([1]; 3′-terminal base pair C · C): 39.9 µM
- Ratio of fext, fext (mutant polymerase)/fext (wtTaq) ([1]; 3′-terminal base pair C · C): 1.0
- fext, f (mismatched 3′terminus)/f (matched terminus) ([1]; 3′-terminal base pair C · C): 5.9 × 10^−8
- Km [1, 4]: 0.016 µM
- Vmax [1, 4]: 1477.0 % Min^−1
- Vmax ([1]; 3′-terminal base pair G · A (template base: 3′ primer base)): 1.6 % Min^−1
- Km ([1]; 3′-terminal base pair G · A): 32.8 µM
- Ratio of fext, fext (mutant polymerase)/fext (wtTaq) ([1]; 3′-terminal base pair G · A): 1.0
- fext, f (mismatched 3′terminus)/f (matched terminus) ([1]; 3′-terminal base pair G · A): 5.4 × 10^−7
- Vmax ([1]; 3′-terminal base pair G · G (template base: 3′ primer base)): 20.4 % Min^−1
- Km ([1]; 3′-terminal base pair G · G): 174 µM
- Ratio of fext, fext (mutant polymerase)/fext (wtTaq) ([1]; 3′-terminal base pair G · G): 1.0
- fext, f (mismatched 3′terminus)/f (matched terminus) ([1]; 3′-terminal base pair G · G): 1.3 × 10^−6
- extension of 3′ transversion mismatches in PCR [2]: unable to extend
- abasic site bypass in primer extension [3]: further extension is largely abolished; also recorded: further extension was negligible

B1: 3D1: third round clone, four mismatch extension; SEQ ID NO: 98 (protein)
chain: MAMLPLFEPKGRVLLVDGHHLAYRTFFALKGPTTSRGEPVQVVYGFAKSLLKALKEDGYKAVFVVFDAKAPSFRHKAYEAYRAGRAPTPEDFPRQLALIKELVDLLGFTRLEVPGYEADDVLATLAKKAEKEGYEVRILTADRGLYQLVSDRVAVLHPEGHLITPEWLWEKYGLRPEQWVDFRALVGDPSDNLPGVKGIGEKTALKLLKEWGSLENLLKNLDRVKPENVREKIKAHLEDLRLSLELSRVRTDLPLEVDLAQRREPDREGLRAFLERLEFGSLFHEFGLLESPKALEEAPWPPPEGAFVGFVLSRKEPMWADLLALAAARGGRVHRAPEPYKALRDLKEARGLLAKDLSVLALREGLGLPPGDDPMLLAYLLDPSNTTPEGVARRYGGEWTEEAGERAALSERLFANLWGRLEGEERLLWLYREVERPLSAVLAHMEATGVRLDVAYLRALSLEVAEEIARLEAEVFRLAGHPFNLNSRDQLEMVLFDELRLPALGKTQKTGKRSTSAAVLEALREAHPIVEKILQYRELTKLKSTYIDPLSDLIHPRTGRLHTRFNQTATATGRLSSSDPNLQNIPVRTPLGQRIRRAFIAEEGWLLVVLDYSQIELRVLAHLSGDENLIRVFQEGRDIHTETASWMFGVPREAVDPLMRRAAKTINFGVLYGMSAHRLSQELAIPYEEAQAFIERYFQSFPKVRAWIEKTLEEGRRRGYVETLFGRRRYVPDLEARVKSVREAAERMAFNMPVQGTAADLMKLAMVKLFPRLGETGARMLLQVHDELVLEAPKERAEAVARLAKEAMEGVYPLAVPLEVEVGIGEDWLSAKG
modifications: Mutant Taq polymerase
- abasic site bypass in primer extension [3]: clearly display better abasic site bypass than either wtTaq or M1

B2: 3A10: third round clone, abasic site bypass; SEQ ID NO: 86 (protein)
chain: MAMLPLFEPKGRVLLVDGHHLAYRTFFALKGLTTSRGEPVQVVYGFAKSLLKALKEDGYKAVFVVFDAKAPSFRHKAYEAYRAGRAPTPQDFPRQLALIKELVDLLGFTRLEVPGYEADDVLATLAKKAEKEGYEVRILTADRGLYQLVSDRVAVLHPEGHLITPEWLWEKYGLRPEQWVDFRALVGDPSDNLPGVKGIGEKTALKLLKEWGSLENLLKNLDRVKPENVREKIKAHLEDLRLSLELSRVRTDLPLEVDLAQGREPDREGLRAFLERLEFGSLLHEFGLLESPKALEEAPWPPPEGAFVGFVLSRKEPMWADLLALAAARGGRVHQAPEPYKALRDLKEARGLLAKDLSVLALREGLGLPPGDDPMLLAYLLDPSNTTPEGVARRYGGEWTEEAGERAALSERLFANLWGRLEGEERLLWLYREVERPLSAVLAHMETTGVRLDVAYLRALSLEVAEEIARLEAEVFRLAGRPFNLNSRDQLERVLFDELGLPAIGKTEKTGKRSTSAAVLEALREAHPIVEKILQYRELTKLKSTYIDPLPDLIHPRTGRLHTRFNQTATATGRLSSSDPNLQNIPVRTPLGQRIRRAFIAEEGWLLVVLDYSQMELRVLAHLSGDENLIRVFQEGKDIHTQTASWMFGVPPEAVDPLMRRAAKTVNFGVLYGMSAHRLSQELSIPYEEAVAFIERYFQSFPKVRAWIEKTLEEGRRRGYVETLFGRRRYVPDLNARMKSVRGAAERMAFNMPVQGTAADLMKLAMVKLFPRLREMGARMLLQVHDELLLEAPQARAEEVAALAKEAMEKAYPLAVPLEVEVGIGEDWLSAKE
modifications: Mutant Taq polymerase
- abasic site bypass in primer extension ([3]; listed as A10): clearly better at both abasic site and CPD extension and bypass than both wild type and M1; also recorded: clearly display better abasic site bypass than either wtTaq or M1
